From patent US20030166587A1
Blank lines part the entries; values can stand above or below the binder they belong to. Non-standard residues stand in square brackets, D forms with d. No end group written: not given here. pS = N[C@@H](COP(=O)(O)O)C(=O)O

Biological target: specific IκB E3 ubiquitin ligase activity of HeLa extract
Assay: cell-based or functional assay

- IC50 of inhibition of pIκBα ubiquitination (in vitro ubiquitination assay in HeLa extract): 5 µM
- TNFα-stimulated NF-κB activation (nuclear p65 staining) abolished, percent of microinjected HeLa cells: 50 to 70%
- inhibition of E-selectin expression, percent of microinjected HUVEC: 70 to 80%
B1: pp21, doubly phosphorylated IκBα peptide (peptide)
peptide: CKKERLLDDRHD[pS]GLD[pS]MKDEE

- IC50 of inhibition of pIκBα ubiquitination (in vitro ubiquitination assay in HeLa extract): 5 µM
B2: pp19, doubly phosphorylated IκBα peptide (peptide)
peptide: CERLLDDRHD[pS]GLD[pS]MKDEE
